To fix the notation:
B2: VEGF-R1D2 (Ig domain 2 of human VEGF-R1, residues 129-229, from E. coli) (receptor, UniProt P17948 129-229, looked up)
chain: SDTGRPFVEMYSEIPEIIHMTEGRELVIPCRVTSPNITVTLKKFPLDTLIPDGKRIIWDSRKGFIISNATYKEIGLLTCEATVNGHLYKTNYLTHRQTNTI
notes: range 129-229; Cloned into pQE30; also called Flt-1 domain 2

The target of assay [1] is VEGF-R1-(hflt1-4)gp130 fusion: chimeric receptor of human VEGF-R1 Ig domains 1 to 4 with the transmembrane and cytoplasmic domains of gp130, on clone 2.1.19.25 cells (human). The assay is described as follows: cell-based or functional assay.
Assay [2] has as its target VEGF-R1D2 (Ig domain 2 of human VEGF-R1, residues 129-229, from E. coli) (human) (UniProt P17948). As to the kind of experiment: SPR (Biacore), VEGF-B immobilised on a CM5 chip, VEGF-R1D2 in solution, Scatchard analysis at steady state. (Surface plasmon resonance follows binding to a sensor surface in real time, without labels.)
In assay [3] the target is VEGF-R1-(hflt1-4)gp130 fusion: chimeric receptor of human VEGF-R1 Ig domains 1 to 4 with the transmembrane and cytoplasmic domains of gp130, on clone 2.1.19.25 cells (human).
The target in assay [4] is B2. As to the kind of experiment: SPR (Biacore), VEGF-B immobilised on a CM5 chip, VEGF-R1D2 in solution, Scatchard analysis at steady state. On the procedure: (§1) For initial Biosensor analysis of the binding of the purified and refolded VEGF-B3 isoforms, surface plasmon resonance (Biosensor 2000; Biacore, Sweden) and recombinant VEGF-R1D2 are used. […] The three forms of VEGF-B were immobilized on separate channels of a CM5 sensor chip, while murine LIF was immobilized to a fourth channel to serve as a negative control. Interaction with VEGF-R1D2 was monitored on all channels simultaneously.
(§2) Purified VEGF-R1D2 is diluted to varying concentrations in 0.1% w/v BSA, 20 mM HEPES, 0.15 M NaCl, 0.005% w/v Tween 20, 3.4 mM EDTA, pH 7.4. […] Scatchard analysis is used to determine binding kinetics at steady state equilibrium.

In assay [5] the target is T1, VEGF-B186 (recombinant mature human, N-terminal His6-tagged, refolded homodimer from E. coli) (human, UniProt P49765 22-207, Refolded homodimer; one protomer given.).
T1 construct: not shown: N-terminal His6 tag coded by the pET15b vector
T1 sequence: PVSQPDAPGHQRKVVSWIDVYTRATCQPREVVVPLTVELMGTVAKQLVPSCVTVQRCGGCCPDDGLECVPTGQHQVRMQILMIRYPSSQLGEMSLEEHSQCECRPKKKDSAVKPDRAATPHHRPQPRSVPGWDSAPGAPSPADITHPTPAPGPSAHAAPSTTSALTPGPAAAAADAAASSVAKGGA
The description is as above. On the procedure:
as §1, §2

From patent US20040005671A1 (ZENYTH OPERATIONS, published 2004) come the findings set out here.

Chain of VEGF-R1-(hflt1-4)gp130 fusion: chimeric receptor of human VEGF-R1 Ig domains 1 to 4 with the transmembrane and cytoplasmic domains of gp130, on clone 2.1.19.25 cells (human) (chain, as listed by the source mutant limits assumed, form in doubt): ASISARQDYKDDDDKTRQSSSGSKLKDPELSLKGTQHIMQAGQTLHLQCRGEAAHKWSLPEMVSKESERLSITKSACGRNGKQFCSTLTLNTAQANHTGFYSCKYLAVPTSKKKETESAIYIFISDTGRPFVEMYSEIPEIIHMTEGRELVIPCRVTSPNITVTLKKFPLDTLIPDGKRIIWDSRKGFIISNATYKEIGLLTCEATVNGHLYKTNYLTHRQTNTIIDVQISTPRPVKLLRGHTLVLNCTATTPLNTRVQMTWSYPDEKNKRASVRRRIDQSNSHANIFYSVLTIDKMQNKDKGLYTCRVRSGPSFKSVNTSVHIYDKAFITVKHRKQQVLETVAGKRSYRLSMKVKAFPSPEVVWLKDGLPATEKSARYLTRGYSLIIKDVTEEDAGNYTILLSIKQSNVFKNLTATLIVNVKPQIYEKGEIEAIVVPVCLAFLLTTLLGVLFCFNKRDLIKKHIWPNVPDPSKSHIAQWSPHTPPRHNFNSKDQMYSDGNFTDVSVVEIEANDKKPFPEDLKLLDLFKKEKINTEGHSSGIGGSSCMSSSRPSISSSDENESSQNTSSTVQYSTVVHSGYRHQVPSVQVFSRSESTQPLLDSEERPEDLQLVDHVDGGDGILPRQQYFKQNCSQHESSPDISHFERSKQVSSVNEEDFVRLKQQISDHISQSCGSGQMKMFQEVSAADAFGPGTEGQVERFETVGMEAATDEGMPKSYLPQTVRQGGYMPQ

Turning to VEGF-A (ligand), in assay [1], the luciferase, signal to background ratio, clone 2.1.19.25 cells lay in the range of 2.5 to 3.

Take “VEGF-B167 (recombinant, N-terminal His6-tagged, refolded homodimer from E. coli) (from UniProt P49765 22-207) (ligand)”: in assay [2], the equilibrium dissociation constant (Kd) (commonly the concentration at which binding is half-saturated) was determined as 1.5 nM. Further, the EC50 (read off the curve) (luciferase reporter, clone 2.1.19.25 cells; VEGF-B167 titrated in the presence of the control mAb at 50 µg/ml) in assay [3] was determined as 0.3 mg/L. The molecule also returned an ED50, luciferase, 2.1.19.25 cell-based assay in assay [1] of 0.15 to 0.3 mg/L.

B1: VEGF-B10-108 (truncated mature human VEGF-B, N-terminal His6-tagged, refolded homodimer from E. coli) (ligand, UniProt P49765 31-129, looked up)
chain: HQRKVVSWIDVYTRATCQPREVVVPLTVELMGTVAKQLVPSCVTVQRCGGCCPDDGLECVPTGQHQVRMQILMIRYPSSQLGEMSLEEHSQCECRPKKK
notes: not shown: additional 16 amino acids at the N-terminus which incorporate a His6 tag and a Genenase I cleavage site (pQE30)
In assay [4], B1 returned a Kd of 0.8 nM.

For the molecule B2, the Kd in assay [5] was 2 nM.
